Test results: the RNAGym collection of RNA variant scans (doi:10.7554/elife.80360)

B1: CPEB3 Ribozyme (parent)
chain: GGGGGCCACAGCAGAAGCGUUCACGUCGCGGCCCCUGUCAGAUUCUGGUGAAUCUGCGAAUUCUGCUGU

Variants of: B1
Assay: self-cleavage, relative activity (ratio to wild type); higher = more cleavage; co-transcriptional

Variant | self-cleavage
G17C G58U | 0.227
G17C G58C | 0.198
G17C G58A | 0.139
C18A C34A | 0.145
G17A G47A | 0.541
G17A G47C | 0.641
G17A G65C | 0.27
G17A G65A | 0.203
G17A G65U | 0.225
G17U G19A | 0.209
G17U G19U | 0.123
C18A C29G | 0.15
G17A G25C | 0.147
G17A G25U | 0.117
G17A G25A | 0.201
G17U A52C | 0.5
G17U A52G | 0.585
G17C A40G | 0.124
G17C A40U | 0.14
G17C A40C | 0.16
G17C U21G | 0.229
G17C U21C | 0.0625
G17U G47C | 0.69
G17U G47A | 0.683

Variant | self-cleavage
G17A U49C | 0.486
G17A U49G | 0.444
G17A U49A | 0.611
G17C U46A | 0.122
G17C U46G | 0.101
G17C U46C | 0.119
G17U U43C | 0.446
G17C U38G | 0.101
G17C U38C | 0.137
G17C U62G | 0.201
G17C U62A | 0.171
G17C U43C | 0.111
G17C U43A | 0.0954
G17C U43G | 0.0986
G17A U69C | 0.883
G17A U69G | 0.677
G17A U38C | 0.314
G17A U38G | 0.11
G17C C45G | 0.142
G17C C45U | 0.121
G17U C34U | 0.514
G17U C34G | 0.177
G17U U38G | 0.149
G17U U38A | 0.255

Variant | self-cleavage
G17C G48C | 0.158
G17C G48U | 0.194
C18A C45U | 0.21
C18A C45A | 0.0998
C18A C45G | 0.179
G17U A23G | 0.331
G17U A23C | 0.462
G17U U49G | 0.455
G17U U49C | 0.554
G17U U49A | 0.662
G17C G50U | 0.157
G17C G50A | 0.142
G17U G31U | 0.169
G17U G31C | 0.129
G17U G31A | 0.191
G17A G48C | 0.599
G17A U44G | 0.302
G17A U44C | 0.255
G17A U44A | 0.397
C18A A51U | 0.181
C18A A51G | 0.233
G17A U36A | 0.0937
G17A U36G | 0.117
G17A U36C | 0.225

Variant | self-cleavage
G17C G30U | 0.206
G17C G30A | 0.154
G17C G30C | 0.134
G17U C24G | 0.0814
G17U C24U | 0.179
G17U C24A | 0.133
G17U C35A | 0.214
G17U C35U | 0.338
G17U C35G | 0.227
G17U U20A | 0.151
G17U U20C | 0.107
G17U U20G | 0.192
G17U C27A | 0.132
G17U C27G | 0.185
G17U U36G | 0.191
G17U U36A | 0.0699
C18A C32A | 0.192
C18A C32G | 0.181
C18A C32U | 0.22
C18A C24A | 0.142
C18A C24U | 0.0604
G17A C54U | 0.488
G17A C54A | 0.236
G17A C54G | 0.187

Variant | self-cleavage
C18A C39U | 0.136
C18A C39A | 0.156
C18A C39G | 0.142
G17C A60C | 0.109
G17C A60U | 0.183
G17C A60G | 0.127
C18A C57A | 0.117
G17C U61C | 0.118
G17C U61G | 0.205
G17A U53G | 0.38
G17A U53C | 0.22
G17A U53A | 0.237
G17A G58U | 0.539
G17A G58C | 0.454
G17A G58A | 0.259
G17U U61A | 0.333
G17A U46C | 0.417
G17A G68A | 0.843
G17A G68C | 0.704
G17A G68U | 0.751
G17C G68A | 0.331
G17C G68C | 0.242
G17U A51C | 0.423
G17U A51G | 0.569

Variant | self-cleavage
G17U A51U | 0.43
G17A U67G | 0.542
G17A U67A | 0.45
G17U G37A | 0.175
G17U G37U | 0.169
G17U G37C | 0.159
G17U U21A | 0.367
G17U U21G | 0.0999
G17U C29U | 0.268
G17U C29G | 0.885
G17U C29A | 0.921
G17C U36A | 0.18
G17C U36G | 0.163
G17C G65U | 0.131
G17C G65A | 0.158
G17A G50A | 0.488
G17A G50U | 0.547
G17A G50C | 0.387
G17C G19C | 0.118
G17C G19A | 0.103
G17C G19U | 0.0627
G17U U64C | 0.251
G17C C29A | 0.367
G17C U26A | 0.156

Variant | self-cleavage
G17C U26C | 0.145
G17C U26G | 0.175
G17C U53G | 0.126
G17C A59U | 0.0945
G17U C63U | 0.322
G17U C63G | 0.229
G17U C63A | 0.182
G17U U46C | 0.537
G17C C66U | 0.152
C18A A52G | 0.201
C18A A52U | 0.258
G17U C33U | 0.347
G17U C33A | 0.228
G17U C22G | 0.112
G17U C22A | 0.132
G17U C22U | 0.169
G17U G56A | 0.32
G17U G56C | 0.219
G17U G56U | 0.2
G17A G31C | 0.135
G17A G31U | 0.113
C18A C33U | 0.251
C18A C33G | 0.123
